From the supplement of paper PMC11316812 come the findings set out here.

The test system of one data set is MCF7. As to the kind of experiment: percentage of EdU-negative (G0-arrested) nuclei per well, 72 h; higher = more G0 arrest. Particulars: reference: sequence is the full UniProt precursor, the tested protein was the secreted form or ectodomain.
The next data set relates to hTERT-HMEC. Described as above. To be noted: reference: sequence is the full UniProt precursor, the tested protein was the secreted form or ectodomain.
Setting [1] is: protein concentration 0.0225 µM.
Setting [2] is: protein concentration 0.0105 µM.
Where [3] appears, read: protein concentration 0.0111429 µM.
[4] abbreviates: protein concentration 0.111429 µM.
The mark [5] stands for this setting: protein concentration 0.0215 µM.
Setting [6] is: protein concentration 0.03125 µM.
Setting [7] is: protein concentration 0.3125 µM.

± gives the standard deviation of the averaged measurements.
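Further: secreted proteins added to cultured cells, EdU pulse at the end, nuclei found by Hoechst imaging, EdU status from nuclear versus surrounding ring intensity ratio, PBS as neutral control.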

As to “MQAARGGAGRPERPGRPGRGPERERERPPGAGAASPCAAPGLPAGGATIHPGSPSAWPPRARAALRLWLGCVCFALVQADSPSAPVNVTVRHLKANSAVVSWDVLEDEVVIGFAISQQKKDVRMLRFIQEVNTTTRSCALWDLEEDTEYIVHVQAISIQGQSPASEPVLFKTPREAEKMASKNKDEVTMKEMGRNQQLRTGEVLIIVVVLFMWAGVIALFCRQYDIIKDNEPNNNKEKTKSASETSTPEHQGGGLLRSKI [Q8NAU1]”, the “percentage of EdU-negative” value was found to be 27.08 ± 0.2% in the data set with MCF7 (setting [1]), 25.3 ± 1.4% in the data set on MCF7 (protein concentration 0.225 µM), 5.26 ± 1.1% in the data set with hTERT-HMEC (setting [1]) and 5.43 ± 0.82% in the data set on hTERT-HMEC (protein concentration 0.225 µM).
On to “MSLWKKTVYRSLCLALALLVAVTVFQRSLTPGQFLQEPPPPTLEPQKAQKPNGQLVNPNNFWKNPKDVAAPTPMASQGPQAWDVTTTNCSANINLTHQPWFQVLEPQFRQFLFYRHCRYFPMLLNHPEKCRGDVYLLVVVKSVITQHDRREAIRQTWGRERQSAGGGRGAVRTLFLLGTASKQEERTHYQQLLAYEDRLYGDILQWGFLDTFFNLTLKEIHFLKWLDIYCPHVPFIFKGDDDVFVNPTNLLEFLADRQPQENLFVGDVLQHARPIRRKDNKYYIPGALYGKASYPPYAGGGGFLMAGSLARRLHHACDTLELYPIDDVFLGMCLEVLGVQPTAHEGFKTFGISRNRNSRMNKEPCFFRAMLVVHKLLPPELLAMWGLVHSNLTCSRKLQVL [Q8NFL0]”, for which the “percentage of EdU-negative” value in the data set on MCF7 (setting [2]) was 25.6 ± 1%; with MCF7 (protein concentration 0.105 µM) it was 27.97 ± 0.1%; in the data set with hTERT-HMEC (setting [2]) it was 4.88 ± 0.47%; with hTERT-HMEC (protein concentration 0.105 µM), 6.5 ± 1.4%.
Take “MWAPRCRRFWSRWEQVAALLLLLLLLGVPPRSLALPPIRYSHAGICPNDMNPNLWVDAQSTCRRECETDQECETYEKCCPNVCGTKSCVAARYMDVKGKKGPVGMPKEATCDHFMCLQQGSECDIWDGQPVCKCKDRCEKEPSFTCASDGLTYYNRCYMDAEACSKGITLAVVTCRYHFTWPNTSPPPPETTMHPTTASPETPELDMAAPALLNNPVHQSVTMGETVSFLCDVVGRPRPEITWEKQLEDRENVVMRPNHVRGNVVVTNIAQLVIYNAQLQDAGIYTCTARNVAGVLRADFPLSVVRGHQAAATSESSPNGTAFPAAECLKPPDSEDCGEEQTRWHFDAQANNCLTFTFGHCHRNLNHFETYEACMLACMSGPLAACSLPALQGPCKAYAPRWAYNSQTGQCQSFVYGGCEGNGNNFESREACEESCPFPRGNQRCRACKPRQKLVTSFCRSDFVILGRVSELTEEPDSGRALVTVDEVLKDEKMGLKFLGQEPLEVTLLHVDWACPCPNVTVSEMPLIIMGEVDGGMAMLRPDSFVGASSARRVRKLREVMHKKTCDVLKEFLGLH [Q8TEU8]”: the “percentage of EdU-negative” value is 25.8 ± 3% in the data set on MCF7 (setting [3]), 28.02 ± 0.15% in the data set with MCF7 (setting [4]), 5.48 ± 1.1% in the data set with hTERT-HMEC (setting [3]) and 6.03 ± 0.2% in the data set with hTERT-HMEC (setting [4]).
“MATMENKVICALVLVSMLALGTLAEAQTETCTVAPRERQNCGFPGVTPSQCANKGCCFDDTVRGVPWCFYPNTIDVPPEEECEF”: the “percentage of EdU-negative” value with MCF7 (setting [5]) was determined as 25.09 ± 0.25%; in the data set with MCF7 (protein concentration 0.215 µM), 25 ± 1.6%; in the data set with hTERT-HMEC (setting [5]), 4.62 ± 0.35%; in the data set with hTERT-HMEC (protein concentration 0.215 µM), 5.31 ± 0.26%.
As to “MARARGSPCPPLPPGRMSWPHGALLFLWLFSPPLGAGGGGVAVTSAAGGGSPPATSCPVACSCSNQASRVICTRRDLAEVPASIPVNTRYLNLQENGIQVIRTDTFKHLRHLEILQLSKNLVRKIEVGAFNGLPSLNTLELFDNRLTTVPTQAFEYLSKLRELWLRNNPIESIPSYAFNRVPSLRRLDLGELKRLEYISEAAFEGLVNLRYLNLGMCNLKDIPNLTALVRLEELELSGNRLDLIRPGSFQGLTSLRKLWLMHAQVATIERNAFDDLKSLEELNLSHNNLMSLPHDLFTPLHRLERVHLNHNPWHCNCDVLWLSWWLKETVPSNTTCCARCHAPAGLKGRYIGELDQSHFTCYAPVIVEPPTDLNVTEGMAAELKCRTGTSMTSVNWLTPNGTLMTHGSYRVRISVLHDGTLNFTNVTVQDTGQYTCMVTNSAGNTTASATLNVSAVDPVAAGGTGSGGGGPGGSGGVGGGSGGYTYFTTVTVETLETQPGEEALQPRGTEKEPPGPTTDGVWGGGRPGDAAGPASSSTTAPAPRSSRPTEKAFTVPITDVTENALKDLDDVMKTTKIIIGCFVAITFMAAVMLVAFYKLRKQHQLHKHHGPTRTVEIINVEDELPAASAVSVAAAAAVASGGGVGGDSHLALPALERDHLNHHHYVAAAFKAHYSSNPSGGGCGGKGPPGLNSIHEPLLFKSGSKENVQETQI [Q9NT99]”, the “percentage of EdU-negative” value with MCF7 (setting [6]) was found to be 22.3 ± 1.6%; in the data set with MCF7 (setting [7]) it was 26.4 ± 1.3%; with hTERT-HMEC (setting [6]), 5.15 ± 0.48%; in the data set with hTERT-HMEC (setting [7]), 6.95 ± 0.74%.
As for “MRLGSPGLLFLLFSSLRADTQEKEVRAMVGSDVELSCACPEGSRFDLNDVYVYWQTSESKTVVTYHIPQNSSLENVDSRYRNRALMSPAGMLRGDFSLRLFNVTPQDEQKFHCLVLSQSLGFQEVLSVEVTLHVAANFSVPVVSAPHSPSQDELTFTCTSINGYPRPNVYWINKTDNSLLDQALQNDTVFLNMRGLYDVVSVLRIARTPSVNIGCCIENVLLQQNLTVGSQTGNDIGERDKITENPVSTGEKNAATWSILAVLCLLVVVAVAIGWVCRDRCLQHSYAGAWAVSPETELTGHV”, the “percentage of EdU-negative” value with MCF7 (setting [1]) was 27.1 ± 2.8%; in the data set on MCF7 (protein concentration 0.225 µM) it was 25.8 ± 2.6%; in the data set on hTERT-HMEC (setting [1]), 5.11 ± 0.35%; with hTERT-HMEC (protein concentration 0.225 µM), 6.86 ± 0.54%.
